Values joined by “and” are separate entries in the source; they are usually repeats but may differ in a detail not shown here. Equal entries are not always repeated.
Substrate: O=P(O)(O)O[C@H]1O[C@H](CO)[C@H](O)[C@H](O)[C@H]1O
Assay: purified protein, by the assay type
[1] = other: SUMO-tagged YidA as coupling enzyme, pH 8.0

B1: Duarte GalT (galactose-1-phosphate uridylyltransferase, Duarte variant) (Homo sapiens; N314D) (protein)
chain: MSRSGTDPQQRQQASEADAAAATFRANDHQHIRYNPLQDEWVLVSAHRMKRPWQGQVEPQLLKTVPRHDPLNPLCPGAIRANGEVNPQYDSTFLFDNDFPALQPDAPSPGPSDHPLFQAKSARGVCKVMCFHPWSDVTLPLMSVPEIRAVVDAWASVTEELGAQYPWVQIFENKGAMMGCSNPHPHCQVWASSFLPDIAQREERSQQAYKSQHGEPLLMEYSRQELLRKERLVLTSEHWLVLVPFWATWPYQTLLLPRRHVRRLPELTPAERDDLASIMKKLLTKYDNLFETSFPYSMGWHGAPTGSEAGANWDHWQLHAHYYPPLLRSATVRKFMVGYEMLAQAQRDLTPEQAAERLRALPEVHYHLGQKDRETATIA
B1 was tested, and the Km [1] was 890 ± 30 µM, the kcat [1] was 14.8 ± 0.867 s⁻¹ and the Km (other: mean ± SD of three independent trials, pH 8.0) was 660 ± 20 µM and 530 ± 40 µM. The Km (other: single trials, ± curve-fit error, pH 8, 37° C., 0.8 mM UDP-glucose, 37.0 °C) was 550 ± 90 µM and 480 ± 30 µM and the Km (other: single trials, ± curve-fit error, pH 8.0, 37° C., 1 mM UDP-glucose, 37.0 °C) was 670 ± 180 µM and 630 ± 140 µM and 670 ± 150 µM.

From patent US20240247301A1, “DIAGNOSTIC ASSAY FOR CLASSIC INBORN GALACTOSEMIA” (Ohio State Innovation Foundation, priority 2022, published 2024)
